Tests used:
FGF2-Y81pCMF-GFP (human) [1] = assay: z-scan fluorescence correlation spectroscopy (brightness analysis); protein on single GUVs with a plasma membrane-like lipid composition containing PI(4,5)P2, pre-incubated at least 30 min; average oligomeric state = cluster brightness / monomer brightness; GUVs containing membrane pores, protein surface concentration larger than 0.4 nmol/m^2
FGF2-Y81pCMF-GFP (human) [2] = assay: z-scan fluorescence correlation spectroscopy (brightness analysis); as a2; GUVs containing membrane pores, protein surface concentration smaller than 0.4 nmol/m^2
FGF2-Y81pCMF-GFP (human) [3] = assay: z-scan fluorescence correlation spectroscopy (brightness analysis); as a2; GUVs without membrane pores, protein surface concentration ≤0.4 nmol/m^2

stoichiometry N (FGF2-Y81pCMF-GFP (human) [1]) [subunits] | stoichiometry N (average oligomeric state) (FGF2-Y81pCMF-GFP (human) [2]) | stoichiometry N (average oligomeric state) (FGF2-Y81pCMF-GFP (human) [1]) | stoichiometry N (average oligomeric state) (FGF2-Y81pCMF-GFP (human) [3]) | Substance
8 to 12 |  |  |  | FGF2-Y81pCMF-GFP (natural protein)
 | 5.24 | 9.23 | 5.22 | FGF2-Y81pCMF-GFP

— paper PMC5601999
